We go through one substance from PMC6290062, “Characterization of a Novel, Cold-Adapted, and Thermostable Laccase-Like Enzyme With High Tolerance for Organic Solvents and Salt and Potent Dye Decolorization Ability, Derived From a Marine Metagenomic Library” (Frontiers in Microbiology, 2018).

In general, Km refers to the concentration of substrate that gives half-maximal velocity. Broadly, the kcat is the maximal rate divided by the concentration of active sites. The term kcat/Km denotes the second-order rate constant that governs catalysis at low substrate concentration.

Assay in all cases: purified protein
Settings in all cases: 0.04 M Britton-Robinson buffer, pH 7.0, 60°C

One data set has as its system COc1ccccc1O. In kind it is biochemical, uncultured bacterium.
Data set [1] deals with COc1cc(C=NN=Cc2cc(OC)c(O)c(OC)c2)cc(OC)c1O.
For a further data set, the system named is Oc1ccccc1O.

Take Lac1326 (uncultured bacterium): in the data set with COc1ccccc1O, the Km was 4900 µM, the kcat amounted to 1.34 s⁻¹ and the specificity constant (kcat/Km) was found to be 270 M⁻¹ s⁻¹. In data set [1], the Km came out at 831 µM, the kcat was found to be 24.1 s⁻¹ and the kcat/Km was determined as 29000 M⁻¹ s⁻¹. Besides, in the data set with Oc1ccccc1O, the Km was 507 µM and the kcat/Km came out at 28000 M⁻¹ s⁻¹.
